The assay deals with T1, TAK1 expressed from yeast 2-hybrid expression vector pBTMHu11F (Homo sapiens (Human)) (UniProt O43318).
T1 sequence: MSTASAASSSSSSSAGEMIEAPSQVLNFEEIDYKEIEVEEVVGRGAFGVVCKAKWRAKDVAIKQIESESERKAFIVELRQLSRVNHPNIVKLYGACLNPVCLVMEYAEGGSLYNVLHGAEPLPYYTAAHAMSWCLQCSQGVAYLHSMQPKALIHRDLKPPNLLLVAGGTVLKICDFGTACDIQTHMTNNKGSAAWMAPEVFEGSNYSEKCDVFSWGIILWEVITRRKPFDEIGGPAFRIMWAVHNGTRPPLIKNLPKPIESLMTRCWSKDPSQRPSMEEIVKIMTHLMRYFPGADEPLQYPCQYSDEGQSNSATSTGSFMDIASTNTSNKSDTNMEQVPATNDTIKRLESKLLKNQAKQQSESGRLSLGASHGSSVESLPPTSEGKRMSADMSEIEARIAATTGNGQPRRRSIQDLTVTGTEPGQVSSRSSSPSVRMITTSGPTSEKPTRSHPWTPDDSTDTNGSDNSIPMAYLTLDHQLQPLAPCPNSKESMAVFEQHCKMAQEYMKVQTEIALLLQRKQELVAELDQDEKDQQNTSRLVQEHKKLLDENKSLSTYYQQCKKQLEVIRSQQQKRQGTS
Kind of assay: cell-based or functional assay.

Where no end group is shown, it is not given here.

B1: TAB1C21, fusion with the GAL4 transcription activated domain (pGAD-TAB1C21) (peptide, not shown: large carriers)
chain: FAEFYRLWSVDHGEQSVVTAP
modifications: also: fusion with GAL4 transcription activation domain
For B1, the β-galactosidase activity of yeast L40 (yeast 2-hybrid), ratio based on TAB1C68 (ratio to TAB1C68) came out at 0.03.

B2: TAB1C22, fusion with the GAL4 transcription activated domain (pGAD-TAB1C22) (peptide, not shown: large carriers)
chain: DFAEFYRLWSVDHGEQSVVTAP
modifications: also: fusion with GAL4 transcription activation domain
With B2, the β-galactosidase activity of yeast L40 (yeast 2-hybrid), ratio based on TAB1C68 (ratio to TAB1C68) amounted to 0.03.

B3: TAB1C24, fusion with the GAL4 transcription activated domain (pGAD-TAB1C24) (peptide, not shown: large carriers)
chain: YVDFAEFYRLWSVDHGEQSVVTAP
modifications: also: fusion with GAL4 transcription activation domain
Consider B3, for which the β-galactosidase activity of yeast L40 (yeast 2-hybrid), ratio based on TAB1C68 (ratio to TAB1C68) is 0.35.

B4: TAB1C20, fusion with the GAL4 transcription activated domain (pGAD-TAB1C20) (peptide, not shown: large carriers)
chain: AEFYRLWSVDHGEQSVVTAP
modifications: also: fusion with GAL4 transcription activation domain
In the case of B4, the β-galactosidase activity of yeast L40 (yeast 2-hybrid), ratio based on TAB1C68 (ratio to TAB1C68) was 0.03.

B5: TAB1C23, fusion with the GAL4 transcription activated domain (pGAD-TAB1C23) (peptide, not shown: large carriers)
chain: VDFAEFYRLWSVDHGEQSVVTAP
modifications: also: fusion with GAL4 transcription activation domain
As to B5, the β-galactosidase activity of yeast L40 (yeast 2-hybrid), ratio based on TAB1C68 (ratio to TAB1C68) came out at 0.05.

Values taken from patent US20030162228A1.
